Measurements from patent US20260201030A1, “ANTIBODY, ANTIBODY-DRUG CONJUGATE THEREOF AND USE THEREOF” (EVOPOINT BIOSCIENCES CO., LTD., priority 2021, published 2026).
Positions count from the first letter of the chain named. Values belong to the molecule of their own block, whether it stands above or below them.

What was measured:
rat Claudin18.2 = biological target: T1, rat Claudin18.2 (Rattus norvegicus, UniProt Q5I0E5); test: FACS species affinity on HEK293T-Claudin18.2 (rat) cells; assay type: binding; settings: cell-based FACS
T1 construct: expressed in transfected cells
T1 sequence (Q5I0E5 1-261 isoform Q5I0E5-2): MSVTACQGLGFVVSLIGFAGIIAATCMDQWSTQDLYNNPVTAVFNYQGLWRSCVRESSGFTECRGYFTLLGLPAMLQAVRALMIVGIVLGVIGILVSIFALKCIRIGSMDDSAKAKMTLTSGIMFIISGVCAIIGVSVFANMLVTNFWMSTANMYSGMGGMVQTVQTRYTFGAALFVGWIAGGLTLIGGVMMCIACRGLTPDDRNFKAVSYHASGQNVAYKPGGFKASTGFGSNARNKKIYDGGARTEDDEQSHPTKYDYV
Procedure: (§1) The affinity of the anti-human Claudin18.2 humanized monoclonal antibodies for Claudin18.2 of different species was determined by flow cytometry (FACS). The experimental procedures were as follows: HEK293T-Claudin18.2 (cynomolgus monkey) cells, HEK293T-Claudin18.2 (mouse) cells and HEK293T-Claudin18.2 (rat) cells were digested, collected by centrifugation, washed three times with pre-cooled PBS, resuspended in 1% BSA (in PBS), and added to a 96-well pointed bottom plate at 3×10^5 cells/well. Each antibody subjected to gradient dilution was added, and the mixture was incubated at 4° C. for 1 h. The cells were washed three times with pre-cooled PBS, and then 1 μL of a fluorescent secondary antibody (APC: Biolegend-410712) was added to each well. The mixture was incubated at 4° C. for 0.5 h, and the cells were washed three times with pre-cooled PBS, then resuspended, and assayed on a flow cytometer.

human Claudin18.2 [1] = biological target: T2, human Claudin18.2 (Homo sapiens, UniProt P56856); test: Cell ELISA affinity before and after conjugation, L929-claudin 18.2 (human) cells; assay type: binding; settings: FIG. 8A
T2 construct: expressed in transfected cells
Procedure: The cell binding affinity of the antibody before and after conjugation to the toxin was detected according to a method similar to that described in Example 2.2. L929-claudin 18.2 (human) or NUGC4 cells were digested with trypsin, collected by centrifugation, washed three times with pre-cooled PBS, resuspended, added to a 96-well plate at 5×10^4 cells/well, and incubated overnight. The cells were fixed with 4% paraformaldehyde and blocked with 2% BSA (in PBS) at 37° C. for 2 h. Each ADC drug or antibody subjected to gradient dilution was added, and the mixture was incubated at 37° C. for 2 h. […] A TMB substrate was added for color development, and after the reaction was stopped by 2 M HCl, OD450 nm values were read on a microplate reader.

human Claudin18.2 [2] = biological target: T2, human Claudin18.2; test: Cell-based ELISA affinity on NUGC4 cells endogenously expressing human Claudin18.2; assay type: binding; settings: for NUCG4 Maximum signal value: OD450
human Claudin18.2 [3] = biological target: T2, human Claudin18.2; test: Cell-based ELISA affinity on NUGC4-Claudin18.2 (human) cells; assay type: binding
human Claudin18.2 [4] = biological target: T2, human Claudin18.2; test: Cell-based ELISA affinity of humanized antibodies on L929-Claudin18.2 (human) cells; assay type: binding; settings: L929-Claudin18.2 cells
[5] = tested on: cynomolgus monkey Claudin18.2; test: FACS species affinity on HEK293T-Claudin18.2 (cynomolgus monkey) cells; assay type: binding; settings: cell-based FACS
Procedure: as §1

human Claudin18.2 [6] = biological target: T2, human Claudin18.2; test: Cell-based FACS affinity on NUGC4-Claudin18.2 (human) cells; assay type: binding
Procedure: (§2) The affinity of the anti-human Claudin18.2 humanized antibodies was detected by flow cytometry. The experimental procedures were as follows: The adherent cultured HEK293T-Claudin18.2 (human), NUGC4-Claudin18.2 (human) and NUGC4 cells were digested, collected by centrifugation, and washed three times with pre-cooled PBS. The cells were resuspended in 1% BSA (in PBS) and added to a 96-well pointed bottom plate at 3×10^5 cells/well, with a volume of 50 μL per well. Each test antibody was diluted with 1% BSA (in PBS) (starting at 100 μg/mL, diluted in a 3-fold gradient, for 10 concentration points). The test antibody subjected to gradient dilution was added to the cells at 50 μL/well, and the mixture was well mixed and incubated at 4° C. for 1 h. The cells were collected by centrifugation, washed three times with pre-cooled PBS, and resuspended in 50 μL of 1% BSA (in PBS). 1 μL of a fluorescent secondary antibody (Biolegend-410712) was added to each well, and the mixture was well mixed and incubated at 4° C. for 0.5 h. The cells were collected by centrifugation, washed three times with pre-cooled PBS, resuspended in 200 μL of PBS, and assayed on a machine.

[7] = tested on: HEK293T-Claudin18.2 (human) cells; test: ADCC activity, fluorescein reporter system (Jurkat-NFAT-CD16a); assay type: cell-based; settings: HEK293T-Claudin18.2 (human) target cells, 5 h
Procedure: ADCC activity of the anti-human Claudin18.2 humanized monoclonal antibodies was detected by a fluorescein reporter system. The experiment was carried out using a Rhinogen® Bio-Glory One-Step Firefly Luciferase Assay kit (Suzhou Rhino Bio, RA-GL04), following the manufacturer's instructions. The experimental procedures were as follows: HEK293T-Claudin18.2 (human) cells were digested, collected by centrifugation, resuspended in DMEM+1% FBS, and then plated at 50000 cells/well. Jurkat-NFAT-CD16a cells were collected by centrifugation and resuspended in 1640+1% FBS, and then plated at 100000 cells/well. Each test antibody subjected to gradient dilution was added, and the mixture was incubated at 37° C. for 5 h. 50 μL of a Bio-Glory One-Step luciferase substrate was added to each well, and readings were taken on a microplate reader (MD, SpectraMax i3x).

human Claudin18.2 [8] = biological target: T2, human Claudin18.2; test: Cell-based FACS affinity on NUGC4 cells; assay type: binding
Procedure: as §2

mouse Claudin18.2 = biological target: T3, mouse Claudin18.2 (Mus musculus, UniProt P56857); test: FACS species affinity on HEK293T-Claudin18.2 (mouse) cells; assay type: binding; settings: cell-based FACS
T3 construct: expressed in transfected cells
T3 sequence (P56857 1-264 isoform P56857-3): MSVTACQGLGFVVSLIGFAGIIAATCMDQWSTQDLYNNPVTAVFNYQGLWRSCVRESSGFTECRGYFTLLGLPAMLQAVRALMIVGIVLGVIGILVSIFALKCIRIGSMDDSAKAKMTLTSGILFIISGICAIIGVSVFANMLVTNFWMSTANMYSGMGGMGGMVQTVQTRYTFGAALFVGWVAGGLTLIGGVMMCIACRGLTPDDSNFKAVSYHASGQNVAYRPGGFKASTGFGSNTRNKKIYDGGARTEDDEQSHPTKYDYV
Procedure: as §1

HEK293T-Claudin18.2 (rat) EC50 (rat Claudin18.2): 1.672 µg/mL
change in affinity for the cells before and after conjugation (human Claudin18.2 [1]): no significant changes in the affinity
NUCG4 EC50 (human Claudin18.2 [2]): 0.1012 µg/mL
NUCG4 Maximum signal value (human Claudin18.2 [2]): 0.304
NUGC4-Claudin18.2 EC50 (human Claudin18.2 [3]): 0.1076 µg/mL
NUGC4-Claudin18.2 Maximum signal value (human Claudin18.2 [3]; OD450): 1.284
Affinity detected by cell-based ELISA (EC50, ng/mL) L929-Claudin18.2 (human Claudin18.2 [4]): 13.41 ng/mL
HEK293T-Claudin18.2 (cynomolgus monkey) EC50 [5]: 0.2398 µg/mL
NUCG4- Claudin18.2 EC50 (human Claudin18.2 [6]): 3.192 µg/mL
NUCG4- Claudin18.2 Maximum signal value (human Claudin18.2 [6]): 871132
binding to NUGC4 (in words) (human Claudin18.2 [8]): significant binding
HEK293T-Claudin18.2 (mouse) EC50 (mouse Claudin18.2): 0.9407 µg/mL
B1: 25C7A5-HZ1: humanized anti-Claudin18.2 antibody, VH SEQ ID NO: 1, VL SEQ ID NO: 2, human IgG1/Kappa constant regions (antibody, V domains shown)
VH: QVQLVQSGAEVKKPGSSVKVSCKASGYTFTNYWLHWVRQAPGQGLEWMGMMHPISGSSNYAQKFQGRATLTVDKSTSTAYMELSSLRSEDTAVYYCARGLLSAMDYWGQGTLVTVSS
VL: EIVLTQSPATLSLSPGERATLSCKASENVKTYVSWYQQKPGQSPRLLIYEASNRYTGVPARFSGSGSATDFTLTISSLEPEDFAVYFCGQTYSFPPTFGQGTKVEIK
modifications: human IgG1/kappa constant regions
ADCC activity EC50 [7]: 0.04649 µg/mL

change in affinity for the cells before and after conjugation (human Claudin18.2 [1]): no significant changes in the affinity
NUCG4 EC50 (human Claudin18.2 [2]): 0.1225 µg/mL
NUCG4 Maximum signal value (human Claudin18.2 [2]): 0.313
Affinity detected by cell-based ELISA (EC50, ng/mL) L929-Claudin18.2 (human Claudin18.2 [4]): 14.80 ± 3.1(N = 2) ng/mL
HEK293T-Claudin18.2 (cynomolgus monkey) EC50 [5]: 0.2133 µg/mL
B2: 25C7A5-HZ2: humanized anti-Claudin18.2 antibody, VH SEQ ID NO: 3, VL SEQ ID NO: 2, human IgG1/Kappa constant regions (antibody, V domains shown)
VH: B1 VH with Q6E
VL: B1 VL
modifications: human IgG1/kappa constant regions
ADCC activity EC50 [7]: 0.04875 µg/mL
